In PMC9637222 (2022) one finds Kd data, which are given here for one molecule.

What all share (assay): ITC
The target in experiment [1] is T1, SipB (tag-free, purified) (S. Typhimurium, UniProt Q56019 1-593).
T1 chain: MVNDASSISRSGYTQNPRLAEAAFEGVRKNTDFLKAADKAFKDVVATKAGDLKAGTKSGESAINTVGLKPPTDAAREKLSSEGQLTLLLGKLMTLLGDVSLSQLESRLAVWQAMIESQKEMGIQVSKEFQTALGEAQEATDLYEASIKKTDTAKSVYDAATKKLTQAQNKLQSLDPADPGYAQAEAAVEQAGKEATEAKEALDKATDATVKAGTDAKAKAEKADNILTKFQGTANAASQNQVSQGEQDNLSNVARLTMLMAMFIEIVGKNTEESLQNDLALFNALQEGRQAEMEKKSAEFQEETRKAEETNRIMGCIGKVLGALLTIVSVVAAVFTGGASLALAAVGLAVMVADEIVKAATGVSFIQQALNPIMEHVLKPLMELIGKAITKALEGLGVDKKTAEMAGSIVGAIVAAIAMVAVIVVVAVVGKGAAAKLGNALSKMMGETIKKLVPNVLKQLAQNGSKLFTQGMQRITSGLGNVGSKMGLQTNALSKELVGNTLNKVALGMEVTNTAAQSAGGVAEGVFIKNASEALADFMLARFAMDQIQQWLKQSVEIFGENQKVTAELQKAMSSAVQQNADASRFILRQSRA

For experiment [2], the target named is T2, SipC (tag-free, purified) (S. Typhimurium, UniProt P0CL47 1-409).
T2 chain: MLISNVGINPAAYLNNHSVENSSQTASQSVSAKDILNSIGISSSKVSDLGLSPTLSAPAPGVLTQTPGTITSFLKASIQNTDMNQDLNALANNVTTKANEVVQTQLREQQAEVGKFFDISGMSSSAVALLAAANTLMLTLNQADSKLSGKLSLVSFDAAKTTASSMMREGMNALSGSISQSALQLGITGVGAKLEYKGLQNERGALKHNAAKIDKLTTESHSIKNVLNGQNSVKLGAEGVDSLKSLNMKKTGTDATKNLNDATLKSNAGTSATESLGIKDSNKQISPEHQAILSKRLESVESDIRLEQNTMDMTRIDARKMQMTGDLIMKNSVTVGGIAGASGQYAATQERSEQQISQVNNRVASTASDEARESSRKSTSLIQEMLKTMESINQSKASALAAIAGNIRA

In experiment [3] the target is T3, InvF (tag-free, purified) (S. Typhimurium, UniProt P69343 1-216).
T3 chain: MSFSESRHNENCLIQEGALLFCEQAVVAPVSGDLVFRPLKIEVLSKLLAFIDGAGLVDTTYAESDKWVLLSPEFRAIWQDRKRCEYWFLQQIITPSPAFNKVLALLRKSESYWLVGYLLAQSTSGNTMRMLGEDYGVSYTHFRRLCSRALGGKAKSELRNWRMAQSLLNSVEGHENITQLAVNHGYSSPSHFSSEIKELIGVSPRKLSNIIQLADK

B1: SicA (tag-free, purified) (natural protein)
chain: MDYQNNVSEERVAEMIWDAVSEGATLKDVHGIPQDMMDGLYAHAYEFYNQGRLDEAETFFRFLCIYDFYNPDYTMGLAAVCQLKKQFQKACDLYAVAFTLLKNDYRPVFFTGQCQLLMRKAAKARQCFELVNERTEDESLRAKALVYLEALKTAETEQHSEQEKE
In the case of B1, the figures for the Kd in experiment [1], in experiment [2] and in experiment [3] were 530 nM, 610 nM and 460 nM, respectively.
